Where no end group is shown, it is not given here. fluorescein = fluorescein label, coupled through a lysine and two β-alanine spacer
Assays:
[1] = biological target: T1, AF9 (497-568), recombinant C-terminal domain of human AF9 (human, UniProt P42568); assay: competitive SPR; peptide pre-incubated with AF9 (500 nM), over immobilised Mocr-DOT1L (826-1095)
[2] = biological target: T2, ENL (489-559), recombinant C-terminal domain of ENL (Homo sapiens (Human), UniProt Q03111); assay: competitive SPR; peptide pre-incubated with ENL (500 nM), over immobilised Mocr-DOT1L (826-1095)
T2 sequence: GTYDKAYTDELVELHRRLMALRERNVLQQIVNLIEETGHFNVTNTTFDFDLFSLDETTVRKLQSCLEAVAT
Experimental: Solution competitive SPR based assay was performed to determine the IC₅₀ values of DOT1L peptides. […] IC₅₀ values were determined by non-linear least squares analysis using Graph Pad Prism 5.0 software.

[3] = biological target: Mocr-DOT1L (826-1095) (human) (UniProt Q8TEK3); assay: SPR; Mocr-DOT1L (826-1095) immobilised
[4] = biological target: T3, GB1-AF9 (497-568) (human) (UniProt P42568); assay: FP saturation; 10 nM Flu-DOT1L titrated with GB1-AF9
T3 sequence: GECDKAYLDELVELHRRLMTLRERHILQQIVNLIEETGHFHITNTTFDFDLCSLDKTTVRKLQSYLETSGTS

[5] = biological target: T3, GB1-AF9 (497-568) (human); assay: FP saturation; 5 nM labeled peptide titrated with GB1-AF9
[6] = biological target: T4, MBP-ENL (489-559) (Homo sapiens (Human)) (UniProt Q03111); assay: FP saturation; 10 nM Flu-DOT1L titrated with MBP-ENL
T4 sequence: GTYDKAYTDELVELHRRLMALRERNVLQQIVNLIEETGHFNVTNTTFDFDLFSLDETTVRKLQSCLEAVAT

[7] = biological target: T3, GB1-AF9 (497-568) (human); assay: competitive FP; displacement of N-Flu-DOT1L from GB1-AF9
[8] = biological target: T4, MBP-ENL (489-559) (Homo sapiens (Human)); assay: ITC; peptide (400 µM) into MBP-ENL (489-559) (80 µM)
[9] = biological target: T3, GB1-AF9 (497-568) (human); assay: competitive FP; displacement of Flu-DOT1L from GB1-AF9
[10] = biological target: Flag-tagged full length human DOT1L protein, DOT1L (1-1537) (human) (UniProt Q8TEK3); assay: SPR; Flag-DOT1L captured on anti-Flag CM5 chip, ENL as analyte
DOT1L (854-925) (human) = biological target: T5, DOT1L (854-925) (human) (UniProt Q8TEK3); assay: SPR; DOT1L construct immobilised on CM5 chip
T5 sequence: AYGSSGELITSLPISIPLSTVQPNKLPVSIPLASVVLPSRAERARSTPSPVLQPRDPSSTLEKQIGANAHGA

DOT1L (925-1095) (human) [11] = biological target: DOT1L (925-1095) (human) (UniProt Q8TEK3); assay: SPR; DOT1L construct immobilised on CM5 chip
[12] = biological target: Mocr-DOT1L (826-1095) (human) (UniProt Q8TEK3); assay: SPR; DOT1L construct immobilised on CM5 chip
DOT1L (854-1095) (human) = DOT1L (854-1095) (human) (UniProt Q8TEK3); assay: SPR; DOT1L construct immobilised on CM5 chip
DOT1L (826-958) (human) = biological target: T6, DOT1L (826-958) (human) (UniProt Q8TEK3); assay: SPR; DOT1L construct immobilised on CM5 chip
T6 sequence: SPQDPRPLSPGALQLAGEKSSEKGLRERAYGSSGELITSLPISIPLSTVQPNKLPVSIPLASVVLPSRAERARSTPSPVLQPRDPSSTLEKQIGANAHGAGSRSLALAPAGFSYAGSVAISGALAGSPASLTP

DOT1L (826-937) (human) = biological target: T7, DOT1L (826-937) (human) (UniProt Q8TEK3); assay: SPR; DOT1L construct immobilised on CM5 chip
T7 sequence: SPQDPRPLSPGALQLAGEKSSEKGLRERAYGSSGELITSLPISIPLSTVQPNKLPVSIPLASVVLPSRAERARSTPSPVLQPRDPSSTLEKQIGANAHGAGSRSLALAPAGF

DOT1L (925-1095) (human) [13] = biological target: DOT1L (925-1095) (human) (UniProt Q8TEK3); assay: SPR; DOT1L (925-1095) immobilised, compared with the longer constructs
[14] = biological target: Flag-tagged full length human DOT1L protein, DOT1L (1-1537) (human) (UniProt Q8TEK3); assay: SPR; full length Flag-DOT1L captured on chip
[15] = biological target: Flag-tagged full length human DOT1L protein, DOT1L (1-1537) (human) (UniProt Q8TEK3); assay: SPR; Flag-DOT1L captured on anti-Flag CM5 chip, AF9 as analyte
[16] = biological target: T4, MBP-ENL (489-559) (Homo sapiens (Human)); assay: ITC; peptide (500 µM) into MBP-ENL (110 µM)
[17] = biological target: T4, MBP-ENL (489-559) (Homo sapiens (Human)); assay: ITC
[18] = biological target: T1, AF9 (497-568), recombinant C-terminal …; assay: competitive SPR
[19] = biological target: T2, ENL (489-559), recombinant C-terminal …; assay: competitive SPR

## Ac-LPISIPLSTVQPNKLP-NH2 [DOT1L 16 mer peptide, Ac-LPISIPLSTVQPNKLP-NH2 (a.a. 865-880)]
[1]
  IC50: 320 nM
[2]
  IC50: 1560 nM

## EETGHFNVTNTTFDFDLFSLDETTVRKLQSCLEAVAT [ENL H2 (523-559)]
[3]
  Kd: 14600 nM
  fold decrease in binding affinity against the intact ENL C-terminal domain: 30 fold

## LPISIPLSTV-NH2 (not fully specified (N-terminus)) [N-Flu-DOT1L, fluorescein-labeled DOT1L 10-mer peptide (N-terminal label)]
[4]
  Kd: 65 nM
[5]
  Kd: 95 nM
[6]
  Kd: 495 nM

B1: ENL H1 (489-544) (protein)
chain: GTYDKAYTDELVELHRRLMALRERNVLQQIVNLIEETGHFNVTNTTFDFDLFSLDE
[3]
  Kd: 2800 nM
  fold decrease in binding affinity against the intact ENL C-terminal domain: 10 fold

## Ac-LPISIPASTV-NH2 [L871A, alanine mutated DOT1L 10mer peptide]
[1]
  IC50: 30700 nM
[2]
  IC50: 147000 nM

## Ac-LAISIPLSTV-NH2 [P866A, alanine mutated DOT1L 10mer peptide]
[1]
  IC50: 3300 nM
[2]
  IC50: 6500 nM

## Ac-LPISIPLSTV-NH2 [DOT1L 10mer peptide, Ac-LPISIPLSTV-NH2 (a.a. 865-874)]
[1]
  IC50: 490 nM
[2]
  IC50: 1340 nM

## Ac-LPISIPLSAV-NH2 [T873A, alanine mutated DOT1L 10mer peptide]
[1]
  IC50: 58 nM
[2]
  IC50: 360 nM
[7]
  Ki: 203 nM

## Ac-LPISIPLSTV-NH2 [DOT1L 10mer peptide, Ac-…-NH2 (a.a. 865-874)]
[8]
  Kd: 1100 nM
[7]
  Ki: 68 nM

## Ac-LPASIPLSTV-NH2 [I867A, alanine mutated DOT1L 10mer peptide]
[1]
  IC50: 57200 nM
[2]
  IC50: > 200000 nM

## Ac-LPISIPLSTVQPNKLP-NH2 [DOT1L 16 mer peptide, Ac-…-NH2 (a.a. 865-880)]
[8]
  Kd: 900 nM
[7]
  Ki: 80 nM

## LSPLRDTPPPQSLMVKITLDLLSRIPQ [AF4 recombinant protein (749-775 residues)]
[9]
  IC50: 560 nM

## Ac-LPISIPLATV-NH2 [S872A, alanine mutated DOT1L 10mer peptide]
[1]
  IC50: 550 nM
[2]
  IC50: 2800 nM

## Ac-APISIPLSTV-NH2 [L865A, alanine mutated DOT1L 10mer peptide]
[1]
  IC50: 98500 nM
[2]
  IC50: 27500 nM

## Ac-LPISIPLSTV-fluorescein (also: C-terminal fluorescein label, attachment not given here) [C-Flu-DOT1L, fluorescently labeled DOT1L-10 mer peptide (C-terminal label)]
[5]
  Kd: 127 nM

## Ac-LMVKITLDLLSRIP-NH2 [AF4 14 mer peptide, Ac-…-NH2]
[9]
  IC50: 280 nM

B2: ENL (489-559), recombinant C-terminal domain of ENL (protein)
chain: GTYDKAYTDELVELHRRLMALRERNVLQQIVNLIEETGHFNVTNTTFDFDLFSLDETTVRKLQSCLEAVAT
[10]
  Kd: 206 nM
DOT1L (854-925) (human)
  Kd: 90 nM
DOT1L (925-1095) (human) [11]
  Kd: 6220 nM
[12]
  Kd: 238 nM
DOT1L (854-1095) (human)
  Kd: 148 nM
DOT1L (826-958) (human)
  Kd: 122 nM
DOT1L (826-937) (human)
  Kd: 81 nM
DOT1L (925-1095) (human) [13]
  fold decrease in binding affinity: 30 fold

## Ac-LPISIPLSTA-NH2 [V874A, alanine mutated DOT1L 10mer peptide]
[1]
  IC50: 700 nM
[2]
  IC50: 4200 nM

## Ac-LPIAIPLSTV-NH2 [S868A, alanine mutated DOT1L 10mer peptide]
[1]
  IC50: 5300 nM
[2]
  IC50: 29100 nM

## Ac-LPISAPLSTV-NH2 [I869A, alanine mutated DOT1L 10mer peptide]
[1]
  IC50: > 200000 nM
[2]
  IC50: > 200000 nM

## Ac-LMVKITLDLLSRIP-NH2 [AF4 14 mer peptide, Ac-LMVKITLDLLSRIP-NH2]
[1]
  IC50: 200 nM
[2]
  IC50: 430 nM

## Ac-LPISIALSTV-NH2 [P870A, alanine mutated DOT1L 10mer peptide]
[1]
  IC50: 2800 nM
[2]
  IC50: 11600 nM

B3: AF9 (497-568), recombinant C-terminal domain of human AF9 (protein)
chain: GECDKAYLDELVELHRRLMTLRERHILQQIVNLIEETGHFHITNTTFDFDLCSLDKTTVRKLQSYLETSGTS
[14]
  fold higher affinity (AF9 against ENL): 6 fold
DOT1L (854-925) (human)
  Kd: 42 nM
DOT1L (925-1095) (human) [11]
  Kd: 1820 nM
[12]
  Kd: 111 nM
DOT1L (854-1095) (human)
  Kd: 135 nM
DOT1L (826-958) (human)
  Kd: 92 nM
DOT1L (826-937) (human)
  Kd: 78 nM
DOT1L (925-1095) (human) [13]
  fold decrease in binding affinity: 50 fold
[15]
  Kd: 33 nM

## Ac-LPISIPL-NH2 [DOT1L 7 mer peptide, Ac-LPISIPL-NH2 (865-871)]
[16]
  Kd: 3400 nM
[1]
  IC50: 3900 nM
[17]
  fold lower affinity against the 16-mer and 10-mer DOT1L peptides: 3 fold
[2]
  IC50: 7300 nM
[18]
  fold reduction in binding against the 10-mer peptide: 8 fold
[19]
  fold reduction in binding against the 10-mer peptide: 5 fold
